Common to all, as to conditions: protein: commercial;commercial; tags: ;; copies: 1;1; label: 5' biotin on strand 2; blunt
In series [1] the target is T1, p65 (RelA);p50 (NF-kB1) (;, UniProt Q04206;P19838 1-551;1-433, |). Put plainly: EMSA; with OGG1 4 ng; higher than Wt; 10 mM Tris-HCl pH 8.0, 5 mM NaCl, 1 mM EDTA, 1 mM DTT, 0.1 mg/ml BSA, 0.1 µg/µl poly(dI-dC) (stated for NE reactions), 10 fmol probe, 10 µl, RT 5-10 min; 6% gel 0.5x TBE 4 °C. In general terms: A gel shift assay detects complexes by their altered migration in electrophoresis.
T1 sequence (Q04206 whole entry, chain 1 of 2): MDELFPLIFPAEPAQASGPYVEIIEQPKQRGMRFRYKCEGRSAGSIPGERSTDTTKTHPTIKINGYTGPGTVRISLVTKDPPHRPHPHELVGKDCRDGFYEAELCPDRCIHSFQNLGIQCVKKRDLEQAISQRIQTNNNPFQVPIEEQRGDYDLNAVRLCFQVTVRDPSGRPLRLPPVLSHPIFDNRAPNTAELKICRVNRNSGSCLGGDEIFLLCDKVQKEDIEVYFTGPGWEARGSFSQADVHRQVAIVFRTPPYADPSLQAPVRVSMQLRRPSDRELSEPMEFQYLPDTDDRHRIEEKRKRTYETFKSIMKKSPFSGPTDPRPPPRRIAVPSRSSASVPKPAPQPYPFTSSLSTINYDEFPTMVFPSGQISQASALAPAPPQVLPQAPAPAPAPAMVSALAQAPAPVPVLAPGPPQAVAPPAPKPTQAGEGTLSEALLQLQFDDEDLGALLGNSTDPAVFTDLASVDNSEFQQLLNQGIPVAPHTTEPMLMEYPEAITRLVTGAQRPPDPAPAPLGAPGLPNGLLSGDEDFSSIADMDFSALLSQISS
T1 sequence (P19838 1-433, chain 2 of 2): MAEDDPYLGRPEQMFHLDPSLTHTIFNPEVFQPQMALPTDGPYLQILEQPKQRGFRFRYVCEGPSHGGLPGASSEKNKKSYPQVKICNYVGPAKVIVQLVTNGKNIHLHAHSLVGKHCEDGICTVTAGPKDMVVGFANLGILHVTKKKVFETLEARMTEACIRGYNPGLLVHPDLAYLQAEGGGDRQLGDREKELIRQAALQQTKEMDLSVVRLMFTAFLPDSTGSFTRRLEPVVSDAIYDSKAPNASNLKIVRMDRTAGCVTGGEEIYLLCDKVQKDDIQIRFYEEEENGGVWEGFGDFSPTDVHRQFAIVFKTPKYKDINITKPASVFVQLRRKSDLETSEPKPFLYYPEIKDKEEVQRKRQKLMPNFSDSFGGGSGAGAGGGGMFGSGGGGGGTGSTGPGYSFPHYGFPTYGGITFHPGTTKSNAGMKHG

The target of series [2] is T1, p65 (RelA);p50 (NF-kB1). The experiment in a line: EMSA; no OGG1; complex from 5 min; 10 mM Tris-HCl pH 8.0, 5 mM NaCl, 1 mM EDTA, 1 mM DTT, 0.1 mg/ml BSA, 0.1 µg/µl poly(dI-dC) (stated for NE reactions), 10 fmol probe, 10 µl, RT 5-10 min; 6% gel 0.5x TBE 4 °C.
Series [3] deals with T1, p65 (RelA);p50 (NF-kB1). Put plainly: EMSA; with OGG1 4 ng; highest shifted amount of κB1 oligos; 10 mM Tris-HCl pH 8.0, 5 mM NaCl, 1 mM EDTA, 1 mM DTT, 0.1 mg/ml BSA, 0.1 µg/µl poly(dI-dC) (stated for NE reactions), 10 fmol probe, 10 µl, RT 5-10 min; 6% gel 0.5x TBE 4 °C.

B1: κB2-G3 (dsDNA)
DNA 1: TGAGGGGACCCTGAGCTCAGGGAATTTCCCTGG
DNA 2: CCAGGGAAATTCCCTGAGCTCAGGGTCCCCTCA
modifications: 8-oxoG at strand 1 position 4 (number label read as following the base)
As for B1, the binding result in the series with p65 (RelA);p50 (NF-kB1) [1] is reported as “binds”.

B2: κB2-Wt (dsDNA)
DNA 1: B1 DNA 1
DNA 2: B1 DNA 2
Take B2: the binding result with p65 (RelA);p50 (NF-kB1) [2] was “binds”.

B3: κB2-G6 (dsDNA)
DNA 1: B1 DNA 1
DNA 2: B1 DNA 2
modifications: 8-oxoG at strand 2 position 23 (opposite C11 of strand 1)
As for B3, in the series with p65 (RelA);p50 (NF-kB1) [1], the binding result is given as “binds”.

B4: κB2-G4 (dsDNA)
DNA 1: B1 DNA 1
DNA 2: B1 DNA 2
modifications: 8-oxoG at strand 1 position 7
For the molecule B4, the binding result with p65 (RelA);p50 (NF-kB1) [1] is listed as “binds”.

B5: κB1-G3 (dsDNA)
DNA 1: TTCCCTGGTCCCCGGGCTTTTCCAGACATCG
DNA 2: CGATGTCTGGAAAAGCCCGGGGACCAGGGAA
modifications: 8-oxoG at strand 2 position 27 (opposite C5 of strand 1)
For the molecule B5, the binding result in the series with p65 (RelA);p50 (NF-kB1) [3] is reported as “binds”.

The record behind these values is publication PMC5339705, “OGG1-DNA interactions facilitate NF-κB binding to DNA targets”.
